Values of other authors, collected in paper PMC10094977.

What was measured:
[1] = molecular target: Cav1.2 IQ domain IQ (UniProt Q13936); assay: isothermal titration calorimetry
[2] = molecular target: Cav1.2 alpha1C IQ domain 1611-1644 (Homo sapiens) (UniProt Q13936); assay: isothermal titration calorimetry
Sequence of Cav1.2 alpha1C IQ domain 1611-1644 (Homo sapiens) (Q13936 1611-1644): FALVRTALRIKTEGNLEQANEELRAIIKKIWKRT

Sequence of Cav1.2 IQ domain IQ (Q13936 1665-1685): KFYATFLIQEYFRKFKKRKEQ

| Substance | Kd [1] | Kd [2] |
| --- | --- | --- |
| Ca2+/calmodulin C-lobe C-lobe (from UniProt P0DP23) | 2 nM |  |
| Calmodulin C-lobe (from UniProt P0DP23) |  | 2 nM |
